In article PMC5757174, “Biophysical characterization of Atg11, a scaffold protein essential for selective autophagy in yeast” (FEBS Open Bio, 2017):
Several values for one entry are separate records, joined by “and”; a condition that tells them apart may be missing. Equal values may be shown once.

Key:
Q12527 [1] = test: SEC; Superdex 200 Increase 10/300 GL, 20 mM Tris pH 8.0, 150 mM NaCl; mass estimated from globular standards
[2] = biological target: the molecule itself; test: AUC; sedimentation velocity, 42 000 r.p.m., 20 °C; full-length Atg11 at 0.65 mg/mL in 20 mM Tris pH 8.0, 300 mM NaCl, 1 mM DTT; c(s) by SEDFIT
Q12527 [3] = test: SEC; Superose 6 Increase 10/300 GL, 20 mM Tris pH 8.0, 300 mM NaCl, 1 mM DTT; mass estimated from globular standards
[4] = biological target: the molecule itself; test: AUC; sedimentation velocity, 36 000 r.p.m., 20 °C; Atg11_N at 0.61 mg/mL and Atg11_C at 0.92 mg/mL in 20 mM Tris pH 8.0, 150 mM NaCl; c(s) by SEDFIT

B1: N-terminal region of Atg11 (residues 1-646) (protein)
chain: MADADEYSTAPTQQEITPLQTTATIINAISGECITTNVDFFVSLDKFKQFIARKWKIPPDQLLILLPYGNKLKPSMFKELLINRSFTLNDFYVYDRRLFSLVSKPTPTNLLTSKDSNPMNSPNSNDLTETLEYLIKNSHISQYQGSDTIMIKPMPSPLEDADVDLSRLNYHSVTSLLTTNLGWLSALEIDVHYFKSLIPDIIAHIKRIFDGLTVCSQYLKLYCFDVESLYNSNVQFLNQLVDNGMTSKWEKCFNDTLSKLTALEGDSLQKFINIESLLENEKSVKILNHSINGKLNKIKREIDENASFRDIITVNIDRLRQMFTPNESKFELEDQMAESFEVLVSEMRTRSRNVLDKEEEEFNSQEFLKSMNVMLEKDKKESVKTLFTISQALYSQIGELIDLKKSLQKHAVAILGNIAFTQMEILGIKRLLLNECNKDLELYKKYEVEFAQVEDLPLIYGLYLIEKYRRLSWFQQILSFISNFNQDLELFKQNELRTRNKWVKNFGSIATVFCEDLLSSSDFKRLNEYHSHTSPPNEDEEDENENSIANYRQDLVKVSQAIDNYMTQIKETDVSEPIIDLLSKTLFETKRFHIIYSNFKNNNNNSSNGNSISPEGSIALKSDDVVKGYKTRIKKLESLLHEFQYS
copies from the apparent SEC mass (globular standards) (Q12527 [1]): 6 and 7–8 copies of each protein, respectively

B2: full-length S. cerevisiae Atg11 (residues 1-1178) (natural protein, UniProt Q12527 1-1178, looked up)
chain: MADADEYSTAPTQQEITPLQTTATIINAISGECITTNVDFFVSLDKFKQFIARKWKIPPDQLLILLPYGNKLKPSMFKELLINRSFTLNDFYVYDRRLFSLVSKPTPTNLLTSKDSNPMNSPNSNDLTETLEYLIKNSHISQYQGSDTIMIKPMPSPLEDADVDLSRLNYHSVTSLLTTNLGWLSALEIDVHYFKSLIPDIIAHIKRIFDGLTVCSQYLKLYCFDVESLYNSNVQFLNQLVDNGMTSKWEKCFNDTLSKLTALEGDSLQKFINIESLLENEKSVKILNHSINGKLNKIKREIDENASFRDIITVNIDRLRQMFTPNESKFELEDQMAESFEVLVSEMRTRSRNVLDKEEEEFNSQEFLKSMNVMLEKDKKESVKTLFTISQALYSQIGELIDLKKSLQKHAVAILGNIAFTQMEILGIKRLLLNECNKDLELYKKYEVEFAQVEDLPLIYGLYLIEKYRRLSWFQQILSFISNFNQDLELFKQNELRTRNKWVKNFGSIATVFCEDLLSSSDFKRLNEYHSHTSPPNEDEEDENENSIANYRQDLVKVSQAIDNYMTQIKETDVSEPIIDLLSKTLFETKRFHIIYSNFKNNNNNSSNGNSISPEGSIALKSDDVVKGYKTRIKKLESLLHEFQYSDIGHWPQGVLNTHLKPFRGSATSINKKKFLGASVLLEPANISEVNIDSVSQANNHQIQELESNVDDLLHQLQLLKEENNRKSMQISEMGKKISDLEVEKTAYRETLTNLNQELARLTNEEQSHRTEIFTLNASFKKQLNDIISQDNEKIEKLTGDYDDVSKSRERLQMDLDESNKKHEQEVNLLKADIERLGKQIVTSEKSYAETNSSSMEKGEKFETIPLAEDPGRENQISAYTQTLQDRIFDIISTNIFILENIGLLLTFDNNNNIQIRRVKGLKKGTAQSNILDESTQMLDAHDNSLIKSPVFQKLKDEYELIKSVANGSEKDTQQSIFLGNITQLYDNKLYEVAVIRRFKDIETLAKKLTKENKIKRTLLERFQREKVTLRNFQIGDLALFLPTRENVNSVGSMSSSTSSLSSSFSSVDLSTPPPLDAMSIQSSPSVIHSNVINQASISGRDKNKLMRPWAAFTAFEESTRYFLKDEKGLTKGKEWFVGRIVTLEHFVADSPSNNPFRLPKGSVWFQVTAVVVSYQGV
notes: Atg11, Saccharomyces cerevisiae, residues 1-1178 (1178 amino acids, 135 kDa); C terminus carried an HRV3C protease site followed by FLAG and 6x His tags; Residues of the HRV3C site may remain at the C terminus; also called full-length Atg11; source: High Five insect cells, baculovirus expression system, purified (Talon, HiTrap Q, HRV3C cleavage, Superose6 Increase); not shown: FLAG, C-terminal, …
stoichiometry N [2]: 1.6 copies | copies from the apparent SEC mass (globular standards) (Q12527 [3]): 8–9 copies of Atg11

B3: C-terminal region of Atg11 (residues 700-1178) (domain or fragment, S. cerevisiae, UniProt Q12527 700-1178, looked up)
chain: NHQIQELESNVDDLLHQLQLLKEENNRKSMQISEMGKKISDLEVEKTAYRETLTNLNQELARLTNEEQSHRTEIFTLNASFKKQLNDIISQDNEKIEKLTGDYDDVSKSRERLQMDLDESNKKHEQEVNLLKADIERLGKQIVTSEKSYAETNSSSMEKGEKFETIPLAEDPGRENQISAYTQTLQDRIFDIISTNIFILENIGLLLTFDNNNNIQIRRVKGLKKGTAQSNILDESTQMLDAHDNSLIKSPVFQKLKDEYELIKSVANGSEKDTQQSIFLGNITQLYDNKLYEVAVIRRFKDIETLAKKLTKENKIKRTLLERFQREKVTLRNFQIGDLALFLPTRENVNSVGSMSSSTSSLSSSFSSVDLSTPPPLDAMSIQSSPSVIHSNVINQASISGRDKNKLMRPWAAFTAFEESTRYFLKDEKGLTKGKEWFVGRIVTLEHFVADSPSNNPFRLPKGSVWFQVTAVVVSYQGV
notes: Atg11, Saccharomyces cerevisiae, residues 700-1178 (55 kDa); Expressed from a modified pMAL-c2E vector as an MBP fusion with an HRV3C site; MBP was cleaved off; A few residues of the site may remain; also called Atg11_C; source: E. coli BL21(DE3), purified (Amylose, HRV3C cleavage, SP-Sepharose, Superdex 200)
copies from the apparent SEC mass (globular standards) (Q12527 [1]): 6 and 7–8 copies of each protein, respectively | stoichiometry N [4]: 2.1 copies
